# Tests used:
# rae1l_rat Rae1 [1] = target: rae1l_rat Rae1 (UniProt Q3SWS8)
# rae1_caeel rae-1 = rae1_caeel rae-1 (UniProt Q93454)
# rae1l_rat Rae1 [2] = target: rae1l_rat Rae1 (UniProt Q3SWS8); remark: listed apart in the source
# Sequence of UniProt Q3SWS8 (Q3SWS8 whole entry): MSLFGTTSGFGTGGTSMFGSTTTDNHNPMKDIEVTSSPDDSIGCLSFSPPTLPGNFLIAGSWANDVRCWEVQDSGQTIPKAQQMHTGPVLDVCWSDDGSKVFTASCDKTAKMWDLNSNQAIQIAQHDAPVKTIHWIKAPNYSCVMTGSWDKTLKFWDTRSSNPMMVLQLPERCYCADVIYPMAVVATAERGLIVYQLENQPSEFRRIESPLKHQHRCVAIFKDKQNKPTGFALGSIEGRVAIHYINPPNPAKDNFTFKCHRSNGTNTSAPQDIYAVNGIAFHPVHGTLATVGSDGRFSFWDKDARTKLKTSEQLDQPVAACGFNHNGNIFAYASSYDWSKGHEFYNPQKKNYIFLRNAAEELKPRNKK
# Sequence of UniProt Q93454 (Q93454 whole entry): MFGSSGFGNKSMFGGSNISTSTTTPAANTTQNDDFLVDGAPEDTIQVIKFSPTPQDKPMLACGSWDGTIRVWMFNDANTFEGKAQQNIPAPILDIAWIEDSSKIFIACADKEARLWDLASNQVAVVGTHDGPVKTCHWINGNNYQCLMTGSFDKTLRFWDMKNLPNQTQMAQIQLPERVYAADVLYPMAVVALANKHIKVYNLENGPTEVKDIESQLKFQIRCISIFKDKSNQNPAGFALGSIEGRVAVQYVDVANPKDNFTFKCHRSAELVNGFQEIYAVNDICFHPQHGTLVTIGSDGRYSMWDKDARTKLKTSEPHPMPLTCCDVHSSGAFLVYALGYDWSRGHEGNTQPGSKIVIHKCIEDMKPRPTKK
effect of a mutation on the interaction (rae1l_rat Rae1 [1]),effect of a mutation on the interaction (rae1_caeel rae-1),effect of a mutation on the interaction (rae1l_rat Rae1 [2]),Substance
disrupting interaction strength,–,–,"E3 ubiquitin-protein ligase rpm-1 (Caenorhabditis elegans), Q17551 R2088A"
decreasing interaction strength,disrupting interaction strength,disrupting interaction strength,"E3 ubiquitin-protein ligase rpm-1 (Caenorhabditis elegans), Q17551 V2084A;I2087A;R2088A"

# Source: IntAct's records for PubMed 22357847
